From article PMC7112428 (International Journal of Biological Macromolecules, 2018)

Target: the molecule itself
Test: SEC

B1: recombinant porcine aminopeptidase N ectodomain (residues 63-963) (domain or fragment, UniProt P15145 63-963, looked up)
chain: QSKPWNRYRLPTTLLPDSYNVTLRPYLTPNADGLYIFKGKSIVRLLCQEPTDVIIIHSKKLNYTTQGHMVVLRGVGDSQVPEIDRTELVELTEYLVVHLKGSLQPGHMYEMESEFQGELADDLAGFYRSEYMEGNVKKVLATTQMQSTDARKSFPCFDEPAMKATFNITLIHPNNLTALSNMPPKGSSTPLAEDPNWSVTEFETTPVMSTYLLAYIVSEFQSVNETAQNGVLIRIWARPNAIAEGHGMYALNVTGPILNFFANHYNTSYPLPKSDQIALPDFNAGAMENWGLVTYRENALLFDPQSSSISNKERVVTVIAHELAHQWFGNLVTLAWWNDLWLNEGFASYVEYLGADHAEPTWNLKDLIVPGDVYRVMAVDALASSHPLTTPAEEVNTPAQISEMFDSISYSKGASVIRMLSNFLTEDLFKEGLASYLHAFAYQNTTYLDLWEHLQKAVDAQTSIRLPDTVRAIMDRWTLQMGFPVITVDTKTGNISQKHFLLDSESNVTRSSAFDYLWIVPISSIKNGVMQDHYWLRDVSQAQNDLFKTASDDWVLLNVNVTGYFQVNYDEDNWRMIQHQLQTNLSVIPVINRAQVIYDSFNLATAHMVPVTLALDNTLFLNGEKEYMPWQAALSSLSYFSLMFDRSEVYGPMKKYLRKQVEPLFQHFETLTKNWTERPENLMDQYSEINAISTACSNGLPQCENLAKTLFDQWMSDPENNPIHPNLRSTIYCNAIAQGGQDQWDFAWGQLQQAQLVNEADKLRSALACSNEVWLLNRYLGYTLNPDLIRKQDATSTINSIASNVIGQPLAWDFVQSNWKKLFQDYGGGSFSFSNLIQGVTRRFSSEFELQQLEQFKKNNMDVGFGSGTRALEQALEKTKANIKWVKENKEVVLNWFIEHS
- stoichiometry N: 2
